The record followed here is patent US10428140B2, “Anti-EphA4 antibody” (EISAI R&D MANAGEMENT CO., LTD., priority 2015, dated 2019).

T1: human EphA3 (Homo sapiens, UniProt P29320)
T1 construct: a protein of the extracellular region of each human Eph receptor fused with the SEAP protein and the His tag; made in house; host or cells: Expi293F cells (culture supernatant)
T1 sequence (P29320 21-541 limits assumed): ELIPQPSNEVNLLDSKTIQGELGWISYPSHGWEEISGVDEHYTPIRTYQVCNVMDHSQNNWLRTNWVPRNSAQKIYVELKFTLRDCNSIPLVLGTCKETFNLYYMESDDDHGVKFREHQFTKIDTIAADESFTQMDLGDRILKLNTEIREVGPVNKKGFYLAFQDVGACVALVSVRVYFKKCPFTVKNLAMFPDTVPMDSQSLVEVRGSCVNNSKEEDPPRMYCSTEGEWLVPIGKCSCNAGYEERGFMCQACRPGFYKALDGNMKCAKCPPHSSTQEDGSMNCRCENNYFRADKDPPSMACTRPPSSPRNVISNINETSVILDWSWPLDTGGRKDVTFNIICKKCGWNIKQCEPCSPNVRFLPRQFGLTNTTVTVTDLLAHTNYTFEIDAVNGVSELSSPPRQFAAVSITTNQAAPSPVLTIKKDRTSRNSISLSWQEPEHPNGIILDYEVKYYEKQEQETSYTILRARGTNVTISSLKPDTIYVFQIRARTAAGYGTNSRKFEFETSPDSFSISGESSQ

B1: 94 (antibody, V domains shown)
VL: EIVMTQSPATLSVSPGERATLSCRASENIYRNLAWYQQKPGQSPRLLIYAATNLADGIPARFSGSGSGTEYTLTISSLQSEDFAVYYCQHFWGTPWTFGQGTKVEIK
VH: QVQLVQSGSELKKPGASVKVSCKASGYTFTDYSMHWVRQAPGQGLKWMGWINTETGEPTYAQGFTGRFVFSLDTSVSTAYLQISSLKAEDTAVYYCARIPLYYYGSRYWYFDVWGQGTTVTVSS
modifications: constant regions without entry; synthetic humanized antibody light chain variable region sequence; synthetic humanized antibody heavy chain variable region sequence
B2: 71 (antibody, V domains shown)
VH: B1 VH with V2I
VL: B1 VL
modifications: synthetic humanized antibody heavy chain variable region sequence; synthetic humanized antibody light chain variable region sequence
B3: 96 (antibody, V domains shown)
VL: B1 VL
VH: B1 VH with Q62D, G63D, T65K
modifications: constant regions without entry; synthetic humanized antibody light chain variable region sequence; synthetic humanized antibody heavy chain variable region sequence
B4: 141 (antibody, V domains shown)
VH: B1 VH with K46E, Q62D, G63D, T65K
VL: DIQMTQSPSSLSASVGDRVTITCRASENIYRNLAWYQQKPGKAPKLLVYAATNLADGVPSRFSGSGSGTDYTLTISSLQPEDFATYYCQHFWGTPWTFGQGTKVEIK
modifications: synthetic humanized antibody heavy chain variable region sequence; synthetic humanized antibody light chain variable region sequence
B5: 143 (antibody, V domains shown)
VH: B1 VH with V2I, Q62D, G63D, T65K
VL: B4 VL
modifications: synthetic humanized antibody heavy chain variable region sequence; synthetic humanized antibody light chain variable region sequence
B6: 95 (antibody, V domains shown)
VL: B1 VL
VH: B1 VH with K46E, Q62D, G63D, T65K
modifications: constant regions without entry; synthetic humanized antibody light chain variable region sequence; synthetic humanized antibody heavy chain variable region sequence
B7: 152 (antibody, V domains shown)
VH: B1 VH with K46E
VL: B4 VL with V48L, P80S
modifications: synthetic humanized antibody heavy chain variable region sequence; synthetic humanized antibody light chain variable region sequence
B8: 138 (antibody, V domains shown)
VH: B1 VH with V2I
VL: B4 VL
modifications: synthetic humanized antibody heavy chain variable region sequence; synthetic humanized antibody light chain variable region sequence
B9: 73 (antibody, V domains shown)
VH: B1 VH with V2I, Q62D, G63D, T65K
VL: B1 VL
modifications: synthetic humanized antibody heavy chain variable region sequence; synthetic humanized antibody light chain variable region sequence
B10: 139 (antibody)
VH: B1 VH with K46E
VL: B4 VL
chain: ASTKGPSVFPLAPSSRSTSESTAALGCLVKDYFPEPVTVSWNSGALTSGVHTFPAVLQSSGLYSLSSVVTVPSSNFGTQTYTCNVDHKPSNTKVDKTVERKSCVECPPCPAPPAAAPSVFLFPPKPKDTLMISRTPEVTCVVVDVSHEDPEVQFNWYVDGVEVHNAKTKPREEQFNSTFRVVSVLTVVHQDWLNGKEYKCKVSNKGLPAPIEKTISKTKGQPREPQVYTLPPSREEMTKNQVSLTCLVKGFYPSDIAVEWESNGQPENNYKTTPPMLDSDGSFFLYSKLTVDKSRWQQGNVFSCSVMHEALHNHYTQKSLSLSPG
modifications: synthetic humanized antibody heavy chain variable region sequence; synthetic humanized antibody light chain variable region sequence; synthetic antibody constant region sequence
B11: 142 (antibody, V domains shown)
VH: B1 VH with Q62D, G63D, T65K
VL: B4 VL
modifications: synthetic humanized antibody heavy chain variable region sequence; synthetic humanized antibody light chain variable region sequence
B12: 140 (antibody, V domains shown)
VH: B1 VH
VL: B4 VL
modifications: synthetic humanized antibody heavy chain variable region sequence; synthetic humanized antibody light chain variable region sequence

Positions count from the first letter of the chain named.

T2 sequence (P54764 20-547): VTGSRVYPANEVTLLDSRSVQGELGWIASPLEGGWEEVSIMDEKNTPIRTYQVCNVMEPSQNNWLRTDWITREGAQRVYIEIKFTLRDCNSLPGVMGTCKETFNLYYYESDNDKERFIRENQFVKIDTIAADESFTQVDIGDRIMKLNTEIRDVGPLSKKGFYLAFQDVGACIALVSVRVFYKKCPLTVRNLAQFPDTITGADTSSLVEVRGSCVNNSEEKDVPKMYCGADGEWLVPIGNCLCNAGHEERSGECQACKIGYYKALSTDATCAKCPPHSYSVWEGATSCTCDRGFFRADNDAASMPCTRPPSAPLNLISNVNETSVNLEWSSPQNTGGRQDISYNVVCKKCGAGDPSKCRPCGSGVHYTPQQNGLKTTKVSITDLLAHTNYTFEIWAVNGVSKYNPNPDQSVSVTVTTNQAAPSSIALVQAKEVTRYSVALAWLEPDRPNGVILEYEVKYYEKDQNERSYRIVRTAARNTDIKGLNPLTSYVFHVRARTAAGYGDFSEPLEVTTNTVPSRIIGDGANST

The first experiment has as its target T2, human EphA4 (binding to human Ephrin A5) (Homo sapiens, UniProt P54764).
T2 construct: made in house; not restated for the human SEAP-His protein
As to the kind of experiment: Human EphA4-human ligand binding inhibition ELISA of humanized antibodies (biotinylated Ephrin A5-Fc). The conditions noted are these: biotinylated human Ephrin A5-Fc 0.7 nM. The procedure:
Each anti-EphA4 monoclonal humanized antibody obtained in Example 16 was evaluated for its inhibitory activity against the binding between human EphA4 and its human ligand according to the following steps. Each well of a 96-well plate (Nunc) was coated with an anti-alkaline phosphatase antibody (Thermo Fisher Scientific). After incubation overnight at 4° C., each well was blocked with 1% BlockAce (DS Pharma Biomedical) at room temperature for 1 hour. After washing with 0.05% Tween 20/PBS (Thermo Fisher Scientific) three times, the human EphA4 extracellular region-SEAP-His protein obtained by the method of Example 2 was added (final concentration: 10 nM) to each well and incubated at room temperature for 1 hour. After washing three times, a ligand and each serially diluted humanized antibody of antibody A (0, 0.003, 0.01, 0.03, 0.1, 0.3, 1, 3, 10, 30, 100, 300, 1000, and 3000 nM) were added to each well. The ligand used was biotinylated human Ephrin A5-Fc chimera (R&D Systems, final concentration: 0.7 nM). After incubation at room temperature for 1 hour and subsequent washing three times, horseradish peroxidase-labeled streptavidin (GE Healthcare) was added thereto and incubated at room temperature for 1 hour. After washing three times, a TMBZ (3,3′,5,5′-tetramethylbenzidine, Sigma-Aldrich) solution was added to each well and incubated at room temperature for 2 minutes. An equal amount of a reaction stopping solution (1N H2SO4, Wako Pure Chemical Industries) was added to each well. The absorbance at 450 nm was read using a microplate reader (PerkinElmer).
On the technique in general: An ELISA detects its analyte on a solid surface through an enzyme-linked reagent.
The IC50 is the concentration that inhibits the measured activity by half. B1 yielded an IC50 of 2.7 nM.

Turning to B2, the IC50 was found to be 2.5 nM. This IC50 and that of the molecule before are within 1.5-fold of each other.

The molecule B3 showed an IC50 of 3.7 nM.

As for B4, the IC50 came out at 3 nM.

Take B5: the IC50 is 5.3 nM.

B6 showed an IC50 of 3.1 nM.

B7 showed an IC50 of 2 nM.

In turn, B8 gave an IC50 of 2.9 nM.

For B9, the IC50 is 2.4 nM.

B10 came in with an IC50 of 3.3 nM.

As for B11, the IC50 came to 3.7 nM. This IC50 and that of the molecule before are within 1.5-fold of each other.

The molecule B12 came in with an IC50 of 2.4 nM.

The target in the next experiment is T1, human EphA3. The experiment is described as follows: Selectivity ELISA of humanized antibodies for human Eph receptor. The format is binding. The conditions noted are these: coated protein 1 nM. In a few lines:
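Steps: coat anti-His antibody; block, then 1% BlockAce overnight at 4 °C; add Eph receptor extracellular region-SEAP-His (1 nM final) 1 h; add humanized antibody 1 h; add HRP anti-IgG 1 h; develop TMB; stop with acid; read 450 nm.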
In the case of B1, the “hEphA3-SEAP-: absorbance at 450 nm, percentage with respect to hEphA4-SEAP-His as 100%” value was found to be 6.8%.

For B2, the “hEphA3-SEAP-: absorbance at 450 nm, percentage with respect to hEphA4-SEAP-His as 100%” value was 5.6%.

With B3, the “hEphA3-SEAP-: absorbance at 450 nm, percentage with respect to hEphA4-SEAP-His as 100%” value turned out to be 5.5%.

As to B4, the “hEphA3-SEAP-: absorbance at 450 nm, percentage with respect to hEphA4-SEAP-His as 100%” value was 5.3%.

Take B5: the “hEphA3-SEAP-: absorbance at 450 nm, percentage with respect to hEphA4-SEAP-His as 100%” value came to 5.6%.

Take B6: the “hEphA3-SEAP-: absorbance at 450 nm, percentage with respect to hEphA4-SEAP-His as 100%” value was 4.8%.

On to B7, for which the “hEphA3-SEAP-: absorbance at 450 nm, percentage with respect to hEphA4-SEAP-His as 100%” value amounted to 5.8%.

Regarding B8, the “hEphA3-SEAP-: absorbance at 450 nm, percentage with respect to hEphA4-SEAP-His as 100%” value amounted to 4.9%.

For B9, the “hEphA3-SEAP-: absorbance at 450 nm, percentage with respect to hEphA4-SEAP-His as 100%” value is reported as 5.8%.

Turning to B10, the “hEphA3-SEAP-: absorbance at 450 nm, percentage with respect to hEphA4-SEAP-His as 100%” value was determined as 5.9%.

Take B11: the “hEphA3-SEAP-: absorbance at 450 nm, percentage with respect to hEphA4-SEAP-His as 100%” value is 5.5%.

Turning to B12, the “hEphA3-SEAP-: absorbance at 450 nm, percentage with respect to hEphA4-SEAP-His as 100%” value is 5.5%.
